β-galactosidase activity data for 1 substance are collected here from paper PMC6769069.

The target in the test is HybD endoprotease fused with peptide T18 of adenylate cyclase (pT18-hybD) (Escherichia coli) (UniProt P37182). Put plainly: two-hybrid; bacterial two-hybrid (adenylate cyclase fragments T25 and T18) in E. coli BTH101; T25 at the N-terminus of the large subunit variants, T18 fused with HybD; anaerobic growth in TGYEP medium pH 6.5 at 30°C for 16 h; β-galactosidase activity according to Miller.
UniProt P37182, sequence (P37182 whole entry, the tested form may be a part): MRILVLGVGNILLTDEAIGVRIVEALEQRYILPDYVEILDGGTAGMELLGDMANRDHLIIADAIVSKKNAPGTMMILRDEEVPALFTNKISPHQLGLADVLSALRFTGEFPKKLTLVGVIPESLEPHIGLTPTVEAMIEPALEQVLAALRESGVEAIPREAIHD

On to “pro-HybC^§ fused to peptide T25 of adenylate cyclase (pT25-hybC^§) (from UniProt P0ACE0 2-552)”, for which the β-galactosidase activity is 820 units.
